Assay results from IntAct's records for PubMed 24240280.

B1: Synaptic vesicle glycoprotein 2C (Homo sapiens), Q496J9 (parent)
chain: MEDSYKDRTSLMKGAKDIAREVKKQTVKKVNQAVDRAQDEYTQRSYSRFQDEEDDDDYYPAGETYNGEANDDEGSSEATEGHDEDDEIYEGEYQGIPSMNQAKDSIVSVGQPKGDEYKDRRELESERRADEEELAQQYELIIQECGHGRFQWALFFVLGMALMADGVEVFVVGFVLPSAETDLCIPNSGSGWLGSIVYLGMMVGAFFWGGLADKVGRKQSLLICMSVNGFFAFLSSFVQGYGFFLFCRLLSGFGIGGAIPTVFSYFAEVLAREKRGEHLSWLCMFWMIGGIYASAMAWAIIPHYGWSFSMGSAYQFHSWRVFVIVCALPCVSSVVALTFMPESPRFLLEVGKHDEAWMILKLIHDTNMRARGQPEKVFTVNKIKTPKQIDELIEIESDTGTWYRRCFVRIRTELYGIWLTFMRCFNYPVRDNTIKLTIVWFTLSFGYYGLSVWFPDVIKPLQSDEYALLTRNVERDKYANFTINFTMENQIHTGMEYDNGRFIGVKFKSVTFKDSVFKSCTFEDVTSVNTYFKNCTFIDTVFDNTDFEPYKFIDSEFKNCSFFHNKTGCQITFDDDYSAYWIYFVNFLGTLAVLPGNIVSALLMDRIGRLTMLGGSMVLSGISCFFLWFGTSESMMIGMLCLYNGLTISAWNSLDVVTVELYPTDRRATGFGFLNALCKAAAVLGNLIFGSLVSITKSIPILLASTVLVCGGLVGLCLPDTRTQVLM

Variants of: B1
Details: with bxa1_clobo botA

Variant | effect of a mutation on the interaction
F563A | disrupting interaction strength
